Literature values as cited in US20260201008A1, “SECRETIN-DERIVED GLP1R SELECTIVE AGONISTS” (GUBRA A/S, priority 2023, published 2026).
Square brackets hold non-standard residues; d marks the D form. Ends that are not written are not given here. Aib = CC(C)(N)C(=O)O

What was measured:
SCTR = SCTR (Homo sapiens, UniProt P47872); conditions: prior art value; cited from earlier work
GLP1R = GLP1R (Homo sapiens, UniProt P43220); conditions: prior art value; cited from earlier work
GLP1R, sequence (P43220 24-463, species assumed): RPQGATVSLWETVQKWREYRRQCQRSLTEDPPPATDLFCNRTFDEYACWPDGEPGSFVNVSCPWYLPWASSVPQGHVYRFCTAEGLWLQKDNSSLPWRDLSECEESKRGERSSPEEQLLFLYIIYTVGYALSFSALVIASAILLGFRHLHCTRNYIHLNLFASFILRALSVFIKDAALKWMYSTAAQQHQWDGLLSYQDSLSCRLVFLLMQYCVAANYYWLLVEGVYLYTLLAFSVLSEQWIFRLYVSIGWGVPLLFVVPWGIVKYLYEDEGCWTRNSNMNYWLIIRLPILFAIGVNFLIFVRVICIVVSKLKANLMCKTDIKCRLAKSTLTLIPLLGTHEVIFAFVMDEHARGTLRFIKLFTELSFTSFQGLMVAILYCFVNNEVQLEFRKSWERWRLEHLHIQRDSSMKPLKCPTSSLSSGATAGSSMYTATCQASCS

SCTR, sequence (P47872 23-440, species assumed): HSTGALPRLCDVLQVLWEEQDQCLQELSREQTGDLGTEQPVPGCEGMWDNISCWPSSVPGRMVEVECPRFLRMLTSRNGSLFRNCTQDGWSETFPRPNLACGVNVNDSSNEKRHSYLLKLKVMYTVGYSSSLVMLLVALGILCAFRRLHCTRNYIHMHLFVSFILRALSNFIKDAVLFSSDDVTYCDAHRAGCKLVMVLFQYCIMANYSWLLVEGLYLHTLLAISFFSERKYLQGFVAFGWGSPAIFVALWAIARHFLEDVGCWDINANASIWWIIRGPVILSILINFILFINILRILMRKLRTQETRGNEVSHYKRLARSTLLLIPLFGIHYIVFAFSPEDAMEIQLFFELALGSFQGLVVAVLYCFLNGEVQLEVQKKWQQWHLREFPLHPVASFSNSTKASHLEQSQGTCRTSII

H-Aib-EGTFTSDLSRLLEGAALQRFIQWLV (H[Aib]EGTFTSDLSRLLEGAALQRFIQWLV-NH2; N-terminus assumed; SMILES CC[C@H](C)[C@H](NC(=O)[C@H](Cc1ccccc1)NC(=O)[C@H](CCCNC(=N)N)NC(=O)[C@H](CCC(N)=O)NC(=O)[C@H](CC(C)C)NC(=O)[C@H](C)NC(=O)[C@H](C)NC(=O)CNC(=O)[C@H](CCC(=O)O)NC(=O)[C@H](CC(C)C)NC(=O)[C@H](CC(C)C)NC(=O)[C@H](CCCNC(=N)N)NC(=O)[C@H](CO)NC(=O)[C@H](CC(C)C)NC(=O)[C@H](CC(=O)O)NC(=O)[C@H](CO)NC(=O)[C@@H](NC(=O)[C@H](Cc1ccccc1)NC(=O)[C@@H](NC(=O)CNC(=O)[C@H](CCC(=O)O)NC(=O)C(C)(C)NC(=O)[C@@H](N)Cc1c[nH]cn1)[C@@H](C)O)[C@@H](C)O)C(=O)N[C@@H](CCC(N)=O)C(=O)N[C@@H](Cc1c[nH]c2ccccc12)C(=O)N[C@@H](CC(C)C)C(=O)N[C@H](C(N)=O)C(C)C) [SEQ ID NO: 216, prior art SCTR/GLP1R co-agonist (Witteloostuijn, 2017)]
EC50 (SCTR): 1.3 nM
EC50 (GLP1R): 0.12 nM
